This assay has as its target T1, B. subtilis DnaA (no tag) (B. subtilis, UniProt P05648 1-446).
T1 sequence (looked up): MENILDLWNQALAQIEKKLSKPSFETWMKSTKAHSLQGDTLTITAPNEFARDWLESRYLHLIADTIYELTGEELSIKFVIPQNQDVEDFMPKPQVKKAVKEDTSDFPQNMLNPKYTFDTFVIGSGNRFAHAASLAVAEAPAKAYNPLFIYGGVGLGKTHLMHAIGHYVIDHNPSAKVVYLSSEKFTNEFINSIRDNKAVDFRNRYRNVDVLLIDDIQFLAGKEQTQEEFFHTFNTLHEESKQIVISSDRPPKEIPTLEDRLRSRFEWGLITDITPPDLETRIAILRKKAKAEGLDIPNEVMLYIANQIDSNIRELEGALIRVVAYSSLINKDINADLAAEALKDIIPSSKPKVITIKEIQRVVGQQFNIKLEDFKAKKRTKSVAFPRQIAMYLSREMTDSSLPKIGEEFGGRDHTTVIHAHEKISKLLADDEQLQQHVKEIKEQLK
The assay can be described thus: native gel or EMSA. (In EMSA bound probe runs differently from free probe, usually more slowly.)

B1: his-YabA (recombinant YabA with a hexa-histidine tag at its N-terminus) (natural protein)
chain: not shown
As to B1, the binding result was “binds”.

The record behind these values is publication PMC3192265 (Molecular microbiology, 2011).
